Assay results reported in paper PMC11840598.

Molecular target: TM expressed on COS-7 cells from pTM-GFP recombinant plasmids (UniProt P07204)
Experiment: atomic force microscopy

Sequence of UniProt P07204 (P07204 19-575): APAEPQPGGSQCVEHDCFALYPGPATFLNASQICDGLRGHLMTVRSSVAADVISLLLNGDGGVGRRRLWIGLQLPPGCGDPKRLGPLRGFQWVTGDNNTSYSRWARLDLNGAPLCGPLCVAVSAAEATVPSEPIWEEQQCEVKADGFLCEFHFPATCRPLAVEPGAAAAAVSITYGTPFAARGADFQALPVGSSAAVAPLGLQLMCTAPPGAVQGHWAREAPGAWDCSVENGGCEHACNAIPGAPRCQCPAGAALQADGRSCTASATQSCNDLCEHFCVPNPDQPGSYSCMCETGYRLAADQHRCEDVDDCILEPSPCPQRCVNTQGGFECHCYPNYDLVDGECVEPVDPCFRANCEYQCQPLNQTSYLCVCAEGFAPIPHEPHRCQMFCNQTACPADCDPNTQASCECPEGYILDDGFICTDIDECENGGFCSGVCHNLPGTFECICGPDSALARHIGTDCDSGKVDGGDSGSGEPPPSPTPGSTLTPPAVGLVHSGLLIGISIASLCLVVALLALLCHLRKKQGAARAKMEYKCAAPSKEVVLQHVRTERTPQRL

## human alpha thrombin (from UniProt P00734 364-622) (enzyme)
  interactional force (single-molecule rupture force), with atorvastatin: 84 pN
  interactional force (single-molecule rupture force), with pitavastatin: 87 pN
  interactional force (single-molecule rupture force), with rosuvastatin: 74.4 pN
